The subject of experiment [1] is Human Embryonic Stem Cells (H1 hESC line). Description: High content analysis of cell number and SOX17 expression at end of first step of differentiation (Example 12). The experiment is classed as cell-based. The settings on record: 100 ng/ml peptide, FIG. 23C-F. As to the method:
(§1) Preparation of Cells for Assay: Stock Cultures of Human Embryonic Stem Cells (H1 hESC line) were maintained in an undifferentiated, pluripotent state on growth factor-reduced MATRIGEL™-coated dishes in MEF conditioned medium supplemented with bFGF (PeproTech; Cat #100-18B) with passage on average every, four days. Passage was performed by exposing cell cultures to a solution of 1 mg/ml collagenase (Invitrogen, Cat #17104-019) for five to seven minutes at 37° C. followed by rinsing the monolayer with MEF conditioned medium and gentle scraping to recover cell clusters. Clusters were centrifuged at low speed to collect a cell pellet and remove residual collagenase. Cell clusters were split at a 1:3 or 1:4 ratio for routine maintenance culture or a 1:1 ratio for immediate assay. All human ES cell lines were maintained at passage numbers less than 50 and routinely evaluated for normal karyotypic phenotype and for absence of mycoplasma contamination.
(§2) Cell clusters were evenly resuspended in MEF conditioned medium supplemented with 8 ng/ml bFGF and seeded onto growth factor-reduced MATRIGEL™-coated 24-well, black wall culture plates (Arctic White; Cat #AWLS-303012) in volumes of 0.5 ml/well. Daily feeding was conducted by aspirating spent culture medium from each well and replacing with an equal volume of fresh medium. Plates were maintained at 37° C., 5% CO2 throughout the duration of assay.
(§3) Assay: The assay was initiated by aspirating culture medium from each well and adding back an aliquot (0.5 ml) of test medium. Test conditions for the first step of differentiation were conducted over a three-day period, feeding daily by aspirating and replacing the medium from each well with fresh test medium. Concentrated supernatants of the ACTN peptides were evaluated for protein concentration using a DuoSet ELISA kit for human activin A (R&D Systems; Cat #DY338), as previously described in Example 11. On the first day of assay, ACTN peptides were diluted to a final concentration of 100 ng/ml in RPMI 1640 medium (Invitrogen; Cat #: 22400) with 2% Albumin Bovine Fraction V, Fatty Acid Free (FAF BSA) (MP Biomedicals, Inc; Cat #152401), 8 ng/ml bFGF, and 20 ng/ml Wnt3a (R&D Systems; Cat #1324-WN/CF) and then added to the assay wells. On the second and third day of assay, ACTN peptides were diluted into RPMI 1640 medium supplemented with 2% fatty acid free BSA and 8 ng/ml bFGF, without any Wnt3a and then added to the assay wells. A positive control sample included a commercial source of activin A (PeproTech; Cat #12 0-14) diluted in culture medium with growth factors as indicated. At the conclusion of three days culture, cells from some wells were harvested for analysis by flow cytometry to evaluate levels of CXCR4, a marker of definitive endoderm formation. […]

The test system is the same in experiment [2]. Description: FACS analysis of CXCR4 at conclusion of first step of step-wise differentiation (Example 12). The settings on record: 100 ng/ml peptide, end of first step (three days), FIG. 23A, 23B. The experiment is classed as cell-based. As to the method: as §1, §2, §3
On the technique in general: Flow cytometry measures light scatter and fluorescence of single cells or particles in a stream.

B1: ACTN1: wild type Activin A mature protein (SwissProt/UniProt: P08476), SEQ ID 2, expressed from applicant's construct (protein)
chain: GLECDGKVNICCKKQFFVSFKDIGWNDWIIAPSGYHANYCEGECPSHIAGTSGSSLSFHSTVINHYRMRGHSPFANLKSCCVPTKLRPMSMLYYDDGQNIIKKDIQNMIVEECGCS
Take B1: the “cell number and SOX17 expression (high content analysis)” value (shortened to “cell number and SOX17 expression”) in experiment [1] is listed as “equivalent results”. Also, in experiment [2], the “CXCR4 expression (FACS)” value was “equivalent and robust CXCR4 expression”.

B2: ACTN48: activin A variant peptide, SEQ ID 49 (protein)
chain: GLECDGKVNLCCKKQNFVSFKDIGWNDWIIAPSGYHANECSGLCPSHIAGTSGSSLSFHSTVINHYRMRGHSPFANMGACCIPTKLRPMSMLYYDDGQNIIKKDIQNMIVEECGCS
Consider B2, for which the “cell number and SOX17 expression” value in experiment [1] is reported as “comparable results”. Further, the “CXCR4 expression (FACS)” value in experiment [2] was “equivalent or comparable”.

B3: ACTN4: activin A variant peptide, SEQ ID 5 (protein)
chain: GLECDGKVNLCCKKQLFVSFKDIGWNDWIIAPSGYHANHCSGLCPSHIAGTSGSSLSFHSTVINHYRMRGHSPFSDMGACCVPTKLRPMSMLYYDDGQNIIKKDIQNMIVEECGCS
Consider B3, for which the “cell number and SOX17 expression” value in experiment [1] is reported as “comparable results”. Besides, in experiment [2], the “CXCR4 expression (FACS)” value is listed as “equivalent or comparable”.

The values above are taken from patent US20110091971A1, “Differentiation of Pluripotent Stem Cells” (priority 2008, published 2011).
